In patent US20130143793A1 (ZEALAND PHARMA A S, published 2013):
Residue numbers refer to the chain shown, from its start. Bridge positions count the residues as written; N and C are the ends. Square brackets hold non-standard residues; d marks the D form. Ends that are not written are not given here. Orn = NCCC[C@H](N)C(=O)O

T1: human CCK-B receptor (human, UniProt P32239 1-447)
T1 sequence (looked up): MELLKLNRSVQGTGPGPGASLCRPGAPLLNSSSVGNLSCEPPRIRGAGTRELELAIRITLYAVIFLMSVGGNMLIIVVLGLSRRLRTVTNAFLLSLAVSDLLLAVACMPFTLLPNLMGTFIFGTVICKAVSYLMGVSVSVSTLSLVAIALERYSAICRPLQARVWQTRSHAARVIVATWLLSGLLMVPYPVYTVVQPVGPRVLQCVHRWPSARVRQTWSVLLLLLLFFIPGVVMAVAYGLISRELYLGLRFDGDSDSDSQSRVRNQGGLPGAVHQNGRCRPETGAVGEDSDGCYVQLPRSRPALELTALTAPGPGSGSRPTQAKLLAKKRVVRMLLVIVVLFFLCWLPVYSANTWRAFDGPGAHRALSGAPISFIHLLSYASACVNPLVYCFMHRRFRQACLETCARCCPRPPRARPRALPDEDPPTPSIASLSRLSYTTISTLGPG

B1: [Glu9,Leu14,Phe25,Tyr13]Exendin-4(1-27)-Orn-Peg3-[Leu2]Gastrin4 (peptide)
peptide: HGEGTFTSELSKYLEEEAVRLFIEFLK[Orn][Peg3]WLDF-NH2
B2: [Arg12,27,Leu14,Lys20,Phe25,Tyr13]Exendin-4(1-27)-Peg3-[Leu4]Gastrin6 (peptide)
peptide: HGEGTFTSDLSRYLEEEAVKLFIEFLR[Peg3]YGWLDF-NH2
B3: [Leu14,Phe25,Tyr13]Exendin-4(1-27)-Peg3-Peg3-[Leu4,Phe3]Gastrin6 (peptide)
peptide: HGEGTFTSDLSKYLEEEAVRLFIEFLK[Peg3][Peg3]YGFLDF-NH2
B4: [Glu9,Leu14,Phe25,Tyr13]Exendin-4(1-27)-[Leu4]Gastrin6 (peptide)
peptide: HGEGTFTSELSKYLEEEAVRLFIEFLKYGWLDF-NH2
B5: [Arg27,Leu14,Phe25,Tyr13]Exendin-4(1-27)-Peg3-[Leu4]Gastrin6 (peptide)
peptide: HGEGTFTSDLSKYLEEEAVRLFIEFLR[Peg3]YGWLDF-NH2
B6: [Arg12,27,Leu14,Lys16,Phe25,Tyr13]Exendin-4(1-27)-Peg3-[Leu4]Gastrin6 (peptide)
peptide: HGEGTFTSDLSRYLEKEAVRLFIEFLR[Peg3]YGWLDF-NH2
B7: [Leu14,Phe25]Exendin-4(1-27)-Peg3-Peg3-[Leu4]Gastrin6 (peptide)
peptide: HGEGTFTSDLSKQLEEEAVRLFIEFLKXXYGWLDF
modifications: Peg3-Peg3 linker; C-terminal amide
B8: [Glu9,Leu14,Phe25,Tyr13]Exendin-4(1-27)-Peg3-Peg3-[Leu4,Phe3]Gastrin6 (peptide)
peptide: HGEGTFTSELSKYLEEEAVRLFIEFLK[Peg3][Peg3]YGFLDF-NH2
B9: [Glu9,Leu14,Phe25,Tyr13]Exendin-4(1-27)-Peg3-Orn-[Leu4]Gastrin6 (peptide)
peptide: HGEGTFTSELSKYLEEEAVRLFIEFLK[Peg3][Orn]YGWLDF-NH2
B10: [Glu9,Leu14,Phe25,Tyr13]Exendin-4(1-27)-Orn-Peg3-[Leu4]Gastrin6 (peptide)
peptide: HGEGTFTSELSKYLEEEAVRLFIEFLK[Orn][Peg3]YGWLDF-NH2
B11: [Tyr13,Phe25]Exendin-4(1-27)-Peg3-Peg3-[Leu4]Gastrin6 (peptide)
peptide: HGEGTFTSDLSKYMEEEAVRLFIEFLK[Peg3][Peg3]YGWLDF-NH2
B12: [Glu9,Leu14,Phe25,Tyr13]Exendin-4(1-27)-Peg3-Peg3-[Leu4]Gastrin6 (peptide)
peptide: HGEGTFTSELSKYLEEEAVRLFIEFLK[Peg3][Peg3]YGWLDF-NH2
B13: [Glu9,Leu14,Phe25,Tyr13]Exendin-4(1-27)-[Leu2]Gastrin4 (peptide)
peptide: HGEGTFTSELSKYLEEEAVRLFIEFLKWLDF-NH2
B14: [Glu9,Leu14,Phe25,Tyr13]Exendin-4(1-27)-Orn-Orn-[Leu4]Gastrin6 (peptide)
peptide: HGEGTFTSELSKYLEEEAVRLFIEFLK[Orn][Orn]YGWLDF-NH2
modifications: N-terminus assumed
SMILES: CC[C@H](C)[C@H](NC(=O)[C@H](Cc1ccccc1)NC(=O)[C@H](CC(C)C)NC(=O)[C@H](CCCNC(=N)N)NC(=O)[C@@H](NC(=O)[C@H](C)NC(=O)[C@H](CCC(=O)O)NC(=O)[C@H](CCC(=O)O)NC(=O)[C@H](CCC(=O)O)NC(=O)[C@H](CC(C)C)NC(=O)[C@H](Cc1ccc(O)cc1)NC(=O)[C@H](CCCCN)NC(=O)[C@H](CO)NC(=O)[C@H](CC(C)C)NC(=O)[C@H](CCC(=O)O)NC(=O)[C@H](CO)NC(=O)[C@@H](NC(=O)[C@H](Cc1ccccc1)NC(=O)[C@@H](NC(=O)CNC(=O)[C@H](CCC(=O)O)NC(=O)CNC(=O)[C@@H](N)Cc1c[nH]cn1)[C@@H](C)O)[C@@H](C)O)C(C)C)C(=O)N[C@@H](CCC(=O)O)C(=O)N[C@@H](Cc1ccccc1)C(=O)N[C@@H](CC(C)C)C(=O)N[C@@H](CCCCN)C(=O)N[C@@H](CCCN)C(=O)N[C@@H](CCCN)C(=O)N[C@@H](Cc1ccc(O)cc1)C(=O)NCC(=O)N[C@@H](Cc1c[nH]c2ccccc12)C(=O)N[C@@H](CC(C)C)C(=O)N[C@@H](CC(=O)O)C(=O)N[C@@H](Cc1ccccc1)C(N)=O
B15: Side chain-cyclo([Lys20,Glu24]Exendin-4(1-28)-Peg3-Peg3-[Leu4]Gastrin6 (peptide)
peptide: HGEGTFTSDLSKQMEEEAVKLFIEWLKN[Peg3][Peg3]YGWLDF-NH2
modifications: lactam 20-24
B16: [Arg12,27,Leu14,Lys24,Phe25,Tyr13]Exendin-4(1-27)-Peg3-[Leu4]Gastrin6 (peptide)
peptide: HGEGTFTSDLSRYLEEEAVRLFIKFLR[Peg3]YGWLDF-NH2
B17: [Tyr13]Exendin-4(1-28)-Peg3-Peg3-[Leu4]Gastrin6 (peptide)
peptide: HGEGTFTSDLSKYMEEEAVRLFIEWLKN[Peg3][Peg3]YGWLDF-NH2
B18: Exendin-4(1-28)-[Thr4]Gastrin6 (peptide)
peptide: HGEGTFTSDLSKQMEEEAVRLFIEWLKNYGWTDF
modifications: C-terminal amide
B19: [Leu14]Exendin-4(1-28)-[Nle4]Gastrin6 (peptide)
peptide: B18 peptide with M14L, T32X
modifications: Nle at position 4 of the Gastrin6 moiety; C-terminal amide
B20: [Leu14]Exendin-4(1-28)-[1Nal3,Leu4]Gastrin6 (peptide)
peptide: B18 peptide with M14L, W31X, T32L
modifications: 1Nal (1-naphthylalanine) at position 3 of the Gastrin6 moiety; C-terminal amide
B21: Exendin-4(1-28)-[Leu4]Gastrin6 (peptide)
peptide: B18 peptide with T32L
modifications: C-terminal amide
B22: [Leu14]Exendin-4(1-28)-[Leu4,[3-(3-Pyridyl)-Ala]6]Gastrin6 (peptide)
peptide: B18 peptide with M14L, T32L, F34X
modifications: 3-(3-Pyridyl)-alanine at position 6 of the Gastrin6 moiety; C-terminal amide
B23: Exendin-4(1-28)-[Phe4]Gastrin6 (peptide)
peptide: B18 peptide with T32F
modifications: C-terminal amide
B24: [Tyr13,Leu14]Exendin-4(1-27)-Peg3-Peg3-[Leu4]Gastrin6 (peptide)
peptide: HGEGTFTSDLSKYLEEEAVRLFIEWLK[Peg3][Peg3]YGWLDF-NH2
B25: [Arg12,Leu14,Phe25,Tyr13]Exendin-4(1-27)-Peg3-[Leu4]Gastrin6 (peptide)
peptide: HGEGTFTSDLSRYLEEEAVRLFIEFLK[Peg3]YGWLDF-NH2
B26: [Glu9,Leu14,Phe25,Tyr13]Exendin-4(1-27)-Peg3-[Leu4]Gastrin6 (peptide)
peptide: HGEGTFTSELSKYLEEEAVRLFIEFLK[Peg3]YGWLDF-NH2
B27: [Glu9,Leu14,Phe25,Tyr13]Exendin-4(1-27)-Orn-Orn-[Leu2]Gastrin4 (peptide)
peptide: HGEGTFTSELSKYLEEEAVRLFIEFLK[Orn][Orn]WLDF-NH2
modifications: N-terminus assumed
SMILES: CC[C@H](C)[C@H](NC(=O)[C@H](Cc1ccccc1)NC(=O)[C@H](CC(C)C)NC(=O)[C@H](CCCNC(=N)N)NC(=O)[C@@H](NC(=O)[C@H](C)NC(=O)[C@H](CCC(=O)O)NC(=O)[C@H](CCC(=O)O)NC(=O)[C@H](CCC(=O)O)NC(=O)[C@H](CC(C)C)NC(=O)[C@H](Cc1ccc(O)cc1)NC(=O)[C@H](CCCCN)NC(=O)[C@H](CO)NC(=O)[C@H](CC(C)C)NC(=O)[C@H](CCC(=O)O)NC(=O)[C@H](CO)NC(=O)[C@@H](NC(=O)[C@H](Cc1ccccc1)NC(=O)[C@@H](NC(=O)CNC(=O)[C@H](CCC(=O)O)NC(=O)CNC(=O)[C@@H](N)Cc1c[nH]cn1)[C@@H](C)O)[C@@H](C)O)C(C)C)C(=O)N[C@@H](CCC(=O)O)C(=O)N[C@@H](Cc1ccccc1)C(=O)N[C@@H](CC(C)C)C(=O)N[C@@H](CCCCN)C(=O)N[C@@H](CCCN)C(=O)N[C@@H](CCCN)C(=O)N[C@@H](Cc1c[nH]c2ccccc12)C(=O)N[C@@H](CC(C)C)C(=O)N[C@@H](CC(=O)O)C(=O)N[C@@H](Cc1ccccc1)C(N)=O
B28: [Glu9,Leu14,Phe25,Tyr13]Exendin-4(1-27)-Peg3-[Leu2]Gastrin4 (peptide)
peptide: HGEGTFTSELSKYLEEEAVRLFIEFLK[Peg3]WLDF-NH2
B29: [Orn20]Exendin-4(1-28)-Peg3-Peg3-[Leu4]Gastrin6 (peptide)
peptide: HGEGTFTSDLSKQMEEEAV[Orn]LFIEWLKN[Peg3][Peg3]YGWLDF-NH2
B30: Exendin-4(1-27)-[Leu4]Gastrin11 (peptide)
peptide: HGEGTFTSDLSKQMEEEAVRLFIEWLKEEEEAYGWLDF
modifications: C-terminal amide
B31: [Glu9,Leu14,Phe25,Tyr13]Exendin-4(1-27)-Peg3-Orn-[Leu2]Gastrin4 (peptide)
peptide: HGEGTFTSELSKYLEEEAVRLFIEFLK[Peg3][Orn]WLDF-NH2
B32: [Asp28]Exendin-4(1-28)-Peg3-Peg3-[Leu4]Gastrin6 (peptide)
peptide: HGEGTFTSDLSKQMEEEAVRLFIEWLKDXXYGWLDF
modifications: Peg3-Peg3 linker; C-terminal amide
B33: [Tyr13,Leu14,Phe25]Exendin-4(1-27)-Peg3-Peg3-[Leu4]Gastrin6 (peptide)
peptide: HGEGTFTSDLSKYLEEEAVRLFIEFLK[Peg3][Peg3]YGWLDF-NH2
B34: Side chain-cyclo([Glu16,Lys20]Exendin-4(1-28)-Peg3-Peg3-[Leu4]Gastrin6 (peptide)
peptide: HGEGTFTSDLSKQMEEEAVKLFIEWLKN[Peg3][Peg3]YGWLDF-NH2
modifications: lactam 16-20

Each binder was assayed against T1, human CCK-B receptor (assay: cell-based or functional assay).

Binder	hCCK-B R EC50 (p-ERK)
B1	10 nM
B2	26 nM
B3	1200 nM
B4	30 nM
B5	18 nM
B6	26 nM
B7	7.9 nM
B8	1300 nM
B9	8.8 nM
B10	100 nM
B11	8.4 nM
B12	20 nM
B13	211 nM
B14	16 nM
B15	4 nM
B16	36 nM

Binder	hCCK-B R EC50 (p-ERK)
B17	12 nM
B18	58 nM
B19	24 nM
B20	270 nM
B21	14 nM
B22	20 nM
B23	140 nM
B24	8.4 nM
B25	14 nM
B26	54 nM
B27	860 nM
B28	13 nM
B29	15 nM
B30	4.3 nM
B31	51 nM
B32	3.3 nM

What follows are binders tested against human GLP-1 receptor (human, UniProt P43220 24-463) (assay: cell-based or functional assay).

Binder	hGLP-1 R EC50 (cAMP)
B1	0.046 nM
B2	0.058 nM
B4	0.11 nM
B5	0.068 nM
B6	0.17 nM
B7	0.026 nM
B8	0.032 nM
B33	0.044 nM
B9	0.087 nM
B10	0.12 nM
B11	0.035 nM
B12	0.046 nM
B13	1.2 nM
B14	0.11 nM
B15	0.032 nM
B16	0.13 nM

Binder	hGLP-1 R EC50 (cAMP)
B34	0.026 nM
B17	0.046 nM
B18	0.044 nM
B19	0.052 nM
B20	0.04 nM
B21	0.061 nM
B23	0.044 nM
B24	0.05 nM
B25	0.079 nM
B27	0.11 nM
B28	0.06 nM
B29	0.038 nM
B30	0.1 nM
B31	0.041 nM
B32	0.061 nM
